Source: paper PMC11148541 (Cancer Immunology Research, 2024)

Target: T1, mouse IL18BPd-Fc (mouse, UniProt Q9Z0M9 29-193)
T1 sequence: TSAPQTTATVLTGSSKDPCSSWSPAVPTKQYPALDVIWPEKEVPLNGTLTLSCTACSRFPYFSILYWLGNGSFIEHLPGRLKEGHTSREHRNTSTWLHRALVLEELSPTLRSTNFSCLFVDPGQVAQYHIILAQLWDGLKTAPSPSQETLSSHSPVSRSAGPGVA
Assay: KinExA

B1: mouse IL18 (ligand)
chain: NFGRLHCTTAVIRNINDQVLFVDKRQPVFEDMTDIDQSASEPQTRLIIYMYKDSEVRGLAVTLSVKDSKMSTLSCKNKIISFEEMDPPENIDDIQSDLIFFQKRVPGHNKMEFESSLYEGHFLACQKEDDAFKLILKKKDENGDKSVMFTLTNLHQS
- Kd: 3.7 pM
